Experimental data published in US20210363254A1 (Novartis, published 2021).
Residue numbers refer to the chain shown, from its start.

Legend:
[1] = molecular target: T1, Programmed Death 1 (PD-1) (UniProt Q15116 25-288, limits assumed); assay: rank of the clone by competition binding against labelled murine mAb BAP049, second experiment (legends paragraph 52); footnote: empty boxes means worse than 4
[2] = molecular target: T1, Programmed Death 1 (PD-1); assay: rank of the clone among the humanized BAP049 clones by FACS data
[3] = molecular target: T1, Programmed Death 1 (PD-1); assay: FACS, blocking of ligand-Ig binding to PD-1, MFI of bound ligand against mAb concentration; legend paragraph 53 names 'PD-LI-Ig and PD-L2-Ig' for FIG. 8A; cells not named
[4] = molecular target: T1, Programmed Death 1 (PD-1); assay: rank of the clone by competition binding against labelled murine mAb BAP049, first experiment (legends paragraph 52)

T1 sequence (Q15116 25-288 limits assumed): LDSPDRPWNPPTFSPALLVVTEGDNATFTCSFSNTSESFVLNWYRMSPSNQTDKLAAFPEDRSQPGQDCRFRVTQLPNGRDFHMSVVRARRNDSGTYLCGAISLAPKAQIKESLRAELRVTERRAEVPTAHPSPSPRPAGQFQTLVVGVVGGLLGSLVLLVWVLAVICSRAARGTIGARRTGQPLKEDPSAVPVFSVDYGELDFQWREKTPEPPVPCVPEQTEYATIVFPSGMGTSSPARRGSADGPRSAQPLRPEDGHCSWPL

B1: BAP049-hum01 (antibody, human IgG4 S228P, kappa, V domains shown)
VH: EVQLVQSGAEVKKPGESLRISCKGSGYTFTTYWMHWVRQATGQGLEWMGNIYPGTGGSNFDEKFKNRVTITADKSTSTAYMELSSLRSEDTAVYYCTRWTTGTGAYWGQGTTVTVSS
VL: EIVLTQSPATLSLSPGERATLSCKSSQSLLDSGNQKNFLTWYQQKPGQAPRLLIYWASTRESGVPSRFSGSGSGTEFTLTISSLQPDDFATYYCQNDYSYPYTFGQGTKVEIKR
notes: Humanized anti-PD-1 mAb; also called humanized BAP049 clone hum01
- Competition Binding, 2nd exp. (rank) [1]: 2
- Ranking, FACS data [2]: 2
- IC50 (read off the curve) [3]: ~1 µg/mL
- Competition Binding, 1st exp. (rank) [4]: 7

B2: BAP049-hum05 (antibody, human IgG4 S228P, kappa, V domains shown)
VH: B1 VH
VL: B1 VL with Q48K, R51K, E76D, L79F, D87E, F89I
notes: also called humanized BAP049 clone hum05
- Competition Binding, 2nd exp. (rank) [1]: > 4
- Ranking, FACS data [2]: 5
- IC50 (read off the curve) [3]: ~1 µg/mL
- Competition Binding, 1st exp. (rank) [4]: 5
